Assay [1] deals with ESCRT-I purified from E. coli (Vps23, Vps28, Vps37) (yeast) (UniProt P25604). Nature of the assay: cross-linking.
For assay [2], the target named is T1, ESCRT-I purified from E. coli (Vps23, Vps28, Vps37) (yeast, UniProt P25604 1-385; Q02767 1-242; Q99176 1-213).
T1 sequence (looked up) 1: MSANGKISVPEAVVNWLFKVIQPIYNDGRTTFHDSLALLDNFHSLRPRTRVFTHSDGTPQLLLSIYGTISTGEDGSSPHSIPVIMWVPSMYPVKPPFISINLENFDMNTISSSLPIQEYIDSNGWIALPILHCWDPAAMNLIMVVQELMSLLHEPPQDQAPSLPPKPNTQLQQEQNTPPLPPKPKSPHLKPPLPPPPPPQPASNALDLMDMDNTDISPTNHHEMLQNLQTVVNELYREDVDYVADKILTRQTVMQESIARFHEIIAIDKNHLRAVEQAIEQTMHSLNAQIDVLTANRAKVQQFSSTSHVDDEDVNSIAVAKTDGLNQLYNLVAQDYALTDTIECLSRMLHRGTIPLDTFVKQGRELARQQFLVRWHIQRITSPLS
T1 sequence (looked up) 2: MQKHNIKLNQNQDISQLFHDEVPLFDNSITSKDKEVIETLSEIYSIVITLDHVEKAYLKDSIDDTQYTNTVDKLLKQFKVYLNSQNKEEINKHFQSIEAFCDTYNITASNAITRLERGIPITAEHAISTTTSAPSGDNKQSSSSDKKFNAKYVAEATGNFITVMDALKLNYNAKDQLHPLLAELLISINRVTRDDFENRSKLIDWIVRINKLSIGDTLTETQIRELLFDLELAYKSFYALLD
T1 sequence (looked up) 3: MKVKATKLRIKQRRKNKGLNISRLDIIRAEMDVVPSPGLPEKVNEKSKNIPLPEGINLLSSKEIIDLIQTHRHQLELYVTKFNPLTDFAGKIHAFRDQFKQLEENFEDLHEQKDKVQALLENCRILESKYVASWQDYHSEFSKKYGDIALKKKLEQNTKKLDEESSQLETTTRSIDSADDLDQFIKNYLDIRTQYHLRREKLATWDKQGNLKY

“And” between values parts separate entries of the source, which are not always exact repeats. Equal values may be shown once.

Turning to “ESCRT-I purified from E. coli (Vps23, Vps28, Vps37) (from UniProt P25604 1-385; Q02767 1-242; Q99176 1-213) (complex)”, the stoichiometry N in assay [1] was 2 and 3.

B1: Mvb12, E. coli-expressed (unpublished in vitro analyses) (natural protein, yeast, UniProt P42939 1-101, looked up)
chain: MNNNVEELLRRIPLYNKYGKDFPQETVTRFQMPEFKLPALQPTRDLLCPWYEECDNITKVCQLHDSSNKKFDQWYKEQYLSKKPPGIVGNTLLSPSRKDNS
Take B1: the “stoichiometry N” value in assay [2] came to 1.

(Values after PMC2064680 (The Journal of Cell Biology, 2006).)
